Here are results for two molecules from patent US20190142971A1, “FORMULATION AND DELIVERY OF MODIFIED NUCLEOSIDE, NUCLEOTIDE, AND NUCLEIC ACID COMPOSITIONS” (ModernaTX, Inc., priority 2013, published 2019).

Data set [1] deals with mice. As to the kind of experiment: Example 39: Factor IX mmRNA IM in mice, serum Factor IX at 13 hours. It counts as in vivo. As to conditions: 2×100 ug/mouse IM. As for the experimental part:
Human Factor IX mmRNA (Gen1; fully modified 5-methycytosine and pseudouridine) formulated in formulation buffer was delivered to mice via intramuscular injection.
The mice were bled at 13 hours after the intramuscular injection to determine the concentration of human the polypeptide in serum in pg/mL.

For data set [2], the system named is mice. To be noted: for Serum Concentration 8-12 hours after administration: Factor IX; for Factor IX Protein Expression, Conc: LNP IV, mice, 8 hrs.
The test system of data set [3] is mouse myoblast (C2C12). As to the kind of experiment: Example 44: signal sequence exchange, secreted G-CSF ELISA (Table 70). It counts as cell-based. As to conditions: MM (mouse myoblast C2C12), 250 ng mRNA, supernatant 24 hrs. The source says: (§1) These variants included the G-CSF constructs encoding either the wild-type N terminal secretory signal peptide sequence ([…]; SEQ ID NO: 19), no secretory signal peptide sequence, or secretory signal peptide sequences taken from other mRNAs. These included sequences where the wild type GCSF signal peptide sequence was replaced with the signal peptide sequence of either: human α-1-anti trypsin (AAT) ([…]; SEQ ID NO: 20), human Factor IX (FIX) ([…]; SEQ ID NO: 21), human Prolactin (Prolac) ([…]; SEQ ID NO: 22), or human Albumin (Alb) ([…]; SEQ ID NO: 23).
(§2) 250 ng of modified mRNA encoding each G-CSF variant was transfected into HEK293A (293A in the table), mouse myoblast (MM in the table) (C2C12, CRL-1772, ATCC) and rat myoblast (RM in the table) (L6 line, CRL-1458, ATCC) cell lines in a 24 well plate using 1 ul of Lipofectamine 2000 (Life Technologies), each well containing 300,000 cells. […] The data shown in Table 70 reveal that cells transfected with G-CSF mmRNA encoding the Albumin signal peptide secrete at least 12 fold more G-CSF protein than its wild type counterpart.

Data set [4] concerns HEK293A. Described as above. The data set is classed as cell-based. To be noted: 293A, 250 ng mRNA, Lipofectamine 2000, supernatant 24 hrs.
Text: as §1, §2

The test system of data set [5] is rat myoblast (L6 line). The data set is described as above. As to conditions: RM (rat myoblast L6), 250 ng mRNA, supernatant 24 hrs. It counts as cell-based.
Text: as §1, §2

Data set [6] is described as follows: Example 64A: Factor IX mRNA in serum-free media, peptides by MALDI. It counts as cell-based. From the text: The cell culture supernatant was collected and subjected to trypsin digestion before undergoing 2-dimensional HPLC separation of the peptides. Matrix-assisted laser desorption/ionization was used to detect the peptides. 8 peptides were detected and 7 of the detected peptides are unique to Factor IX.

Data set [7] deals with HEK 293A cells. As to the kind of experiment: Example 64B: Factor IX mRNA half-life by quantitative Real-Time PCR. The data set is classed as cell-based, Human. As to conditions: HEK293. Here is the method: The transfection complexes were removed 3 hours after transfection. […] Total RNA was isolated and used for cDNA synthesis.
Data set [8] has as its system C57/BL6 mice. As to the kind of experiment: Example 32C: G-CSF lipoplex vs saline IM, SC in mice, serum G-CSF ELISA at 13 hours (Table 57). It counts as in vivo. To be noted: IM or SC. As for the experimental part:
A formulation containing 100 μg of either modified human G-CSF mRNA lipoplexed with 30% by volume of RNAIMAX™ with a 5-methylcytosine (5mc) and a pseudouridine (ψ) modification (G-CSF-Gen1-Lipoplex), modified human G-CSF mRNA with a 5mc and ψ modification in saline (G-CSF-Gen1-Saline), modified human G-CSF mRNA with a N1-5-methylcytosine (N1-5mc) and a ψ modification lipoplexed with 30% by volume of RNAIMAX™ (G-CSF-Gen2-Lipoplex), modified human G-CSF mRNA with a N1-5mc and ψ modification in saline (G-CSF-Gen2-Saline), modified luciferase with a 5mc and ψ modification lipoplexed with 30% by volume of RNAIMAX™ (Luc-Lipoplex), or modified luciferase mRNA with a a 5mc and w modification in saline (Luc-Saline) was delivered intramuscularly (I.M.) or subcutaneously (S.C.) and a control group for each method of administration was giving a dose of 80 uL of the formulation buffer (F. Buffer) to C57/BL6 mice. 13 hours post injection serum and tissue from the site of injection were collected from each mouse and analyzed by G-CSF ELISA to compare human G-CSF protein levels. The results of the human G-CSF protein in mouse serum from the intramuscular administration and the subcutaneous administration results are shown in Table 57.
A general note: An ELISA detects its analyte on a solid surface through an enzyme-linked reagent.

Data set [9] concerns BALB/C mice. As to the kind of experiment: Example 59: G-CSF mRNA IM in mice, serum human G-CSF and mouse IFN-alpha ELISA (Table 93). The data set is classed as in vivo.
In data set [10] the test system is human PBMC. As to the kind of experiment: Example 45: PBMC transfection, G-CSF ELISA (Table 71). The data set is classed as cell-based. Here is the method: (§3) The plates were then incubated at 37 C.
(§4) Each condition was done in duplicate.
(§5) Shown in Tables 71 and 72 are the average from 2 separate PBMC donors of the G-CSF and IFN-alpha production over time as measured by specific ELISA.

Data set [11] concerns human PBMC. As to the kind of experiment: Example 45: PBMC transfection, IFN-alpha ELISA (Table 72). It counts as cell-based. As for the experimental part:
as §3, §4, §5

Data set [12] deals with BJ fibroblasts. As to conditions: for IFN-beta / IL-6: 250 ng transfected daily for 5 days.
Data set [13] deals with Sprague Dawley rats. As to the kind of experiment: Example 60: G-CSF/Factor IX mRNA IM in rats, serum G-CSF ELISA (Table 94). It counts as in vivo. As for the experimental part:
Protein production of modified mRNA was evaluated by delivering modified G-CSF mRNA or modified Factor IX mRNA to female Sprague Dawley rats (n=6). […] Blood was collected 8 hours after injection and the G-CSF protein level in serum was measured by ELISA.

In data set [14] the test system is mice. As to the kind of experiment: Example 40: multi-site IM/SC G-CSF mRNA in mice, neutrophil count (Table 65). It counts as in vivo. To be noted: day 3. As for the experimental part: Injection of four doses or 2×50 ug (two sites) daily for three days (24 hrs interval) was performed. The fourth dose was administered 6 hrs before blood collection and CBC analysis. […] The mice were bled at 72 hours after the first mRNA injection (6 hours after the last mRNA dose) to determine the effect of mRNA-encoded human G-CSF on the neutrophil count. The dosing regimen is shown in Table 65 as are the resulting neutrophil counts (thousands/uL). In Table 65, an asterisks (*) indicate statistical significance at p<0.05.

Where two headings read alike, the source gives them in different places.

For “Factor IX: modified mRNA encoding human Factor IX, SEQ ID NO: 8, Cap1, fully modified with 5-methylcytosine and pseudouridine”, the “Factor IX in serum” value in [1] worked out at 1600 pg/mL. Besides, the “Factor IX protein expression determined by ELISA” value in data set [2] (100 ug dose group) was in the range of 3000 to 11000 ng/mL. Further, the “Serum Concentration 8-12 hours after administration” value in data set [2] (IM, 2 × 100 ug) is roughly 1.6 ng/mL; in [2] (IV (LNP), 1 ug), roughly 40 ng/mL; in [2] (IV (LNP), 10 ug), roughly 400 ng/mL; in [2] (IV (LNP), 100 ug), ~3,000-10,000 ng/ml. Further, the “Factor IX Protein Expression, Conc” value was 383.04 ng/mL in [2] (dose 10 ug); 3247.75 ng/mL in data set [2] (dose 100 ug, dilution factor 50x); 11177.20 ng/mL in data set [2] (dose 100 ug, dilution factor 250x). For the same molecule, the “secreted G-CSF protein” value in [3] amounted to 6175 pg/mL; in [4] it was 11675 pg/mL; in data set [5] it was 11675 pg/mL. In addition, the “Factor IX protein expression (peptides by MALDI)” value in data set [6] is “able to express full-length Factor IX protein”. Moreover, the “half-life of mRNA” value in data set [7] lay within 8 to 10 h.

B1: G-CSF Gen 2: G-CSF mRNA (SEQ ID NO: 4) fully modified with 5-methylcytosine and N1-methylpseudouridine (nucleic acid)
chain: GGGAAAUAAGAGAGAAAAGAAGAGUAAGAAGAAAUAUAAGAGCCACCAUGGCCGGUCCCGCGACCCAAAGCCCCAUGAAACUUAUGGCCCUGCAGUUGCUGCUUUGGCACUCGGCCCUCUGGACAGUCCAAGAAGCGACUCCUCUCGGACCUGCCUCAUCGUUGCCGCAGUCAUUCCUUUUGAAGUGUCUGGAGCAGGUGCGAAAGAUUCAGGGCGAUGGAGCCGCACUCCAAGAGAAGCUCUGCGCGACAUACAAACUUUGCCAUCCCGAGGAGCUCGUACUGCUCGGGCACAGCUUGGGGAUUCCCUGGGCUCCUCUCUCGUCCUGUCCGUCGCAGGCUUUGCAGUUGGCAGGGUGCCUUUCCCAGCUCCACUCCGGUUUGUUCUUGUAUCAGGGACUGCUGCAAGCCCUUGAGGGAAUCUCGCCAGAAUUGGGCCCGACGCUGGACACGUUGCAGCUCGACGUGGCGGAUUUCGCAACAACCAUCUGGCAGCAGAUGGAGGAACUGGGGAUGGCACCCGCGCUGCAGCCCACGCAGGGGGCAAUGCCGGCCUUUGCGUCCGCGUUUCAGCGCAGGGCGGGUGGAGUCCUCGUAGCGAGCCACCUUCAAUCAUUUUUGGAAGUCUCGUACCGGGUGCUGAGACAUCUUGCGCAGCCGUGAAGCGCUGCCUUCUGCGGGGCUUGCCUUCUGGCCAUGCCCUUCUUCUCUCCCUUGCACCUGUACCUCUUGGUCUUUGAAUAAAGCCUGAGUAGGAAG
modifications: 5-methylcytosine, N1-methylpseudouridine
As to B1, the “human G-CSF protein production relative to 5-methylcytosine/pseudouridine mRNA” value in data set [8] was “increased human G-CSF protein production”. Further, the “Protein: Cytokine Ratio (PC Ratio)” value in [9] (G-CSF / IFN-alpha) is reported as 748. The “human G-CSF expression in mouse serum” value in data set [9] (IM, 8 hours) is on record as “resulted in human G-CSF expression in mouse serum”. In data set [9] (IM, 8 hours), the “mouse IFN-alpha in the serum (cytokine response)” value is listed as “no detectable IFN-alpha”. The G-CSF production result in [10] is given as “highest level of G-CSF production”. In data set [11], the “IFN-alpha / cytokine production” value is listed as “did not significantly increase cytokines”. Further, in data set [12], the “time to cytokine response (IFN-beta, IL-6)” value lay within 3 to 5 days. Besides, the IFN-beta in data set [12] (6 hours) came to 0 pg/mL; in [12] (Day 1), 0 pg/mL; in data set [12] (Day 2), 150 pg/mL; in data set [12] (Day 3), 213 pg/mL; in data set [12] (Day 4), 1400 pg/mL; in data set [12] (Day 5) it was 350 pg/mL. Also, the IL-6 in [12] (6 hours) is 3337 pg/mL; in data set [12] (Day 1) it was 3733 pg/mL; in data set [12] (Day 2), 974 pg/mL; in data set [12] (Day 3) it was 4972 pg/mL; in data set [12] (Day 4), 4122 pg/mL; in data set [12] (Day 5), 2906 pg/mL. Also, the “human G-CSF protein production, Gen 2 vs Gen 1 chemistry” value in data set [13] (400 ug IM, rats, 8 hours) is recorded as “human G-CSF protein production is improved”. Moreover, the “G-CSF protein in rat serum” value in data set [13] (I.M., 400 ug in 100 ul, 5% sucrose, 8 hours after injection) turned out to be 64.72 pg/mL. The “increase in neutrophil count above control” value in data set [14] (intramuscular) and in data set [14] (subcutaneous) was “two fold increase” throughout.
